Bridge positions count the residues as written; N and C are the ends. Square brackets hold non-standard residues; d marks the D form. Ends that are not written are not given here. 1Nal = N[C@@H](Cc1cccc2ccccc12)C(=O)O; 2Nal = N[C@@H](Cc1ccc2ccccc2c1)C(=O)O; d2Nal = N[C@H](Cc1ccc2ccccc2c1)C(=O)O; Bta = N[C@@H](Cc1csc2ccccc12)C(=O)O; Nle = CCCC[C@H](N)C(=O)O; Orn = NCCC[C@H](N)C(=O)O; Dap = NC[C@H](N)C(=O)O; Ahx = NCCCCCC(=O)O

Assay [1] concerns the target human melanocortin receptor subtype 1 (hMC1-R) (human), Q01726. The experiment in a line: [125I]-NDP-α-MSH competition, membranes.
The target of assay [2] is human melanocortin receptor subtype 3 (hMC3-R) (human), P41968. The assay can be described thus: [125I]-NDP-α-MSH competition, membranes.
Chain of human melanocortin receptor subtype 3 (hMC3-R) (human), P41968 (P41968 whole entry): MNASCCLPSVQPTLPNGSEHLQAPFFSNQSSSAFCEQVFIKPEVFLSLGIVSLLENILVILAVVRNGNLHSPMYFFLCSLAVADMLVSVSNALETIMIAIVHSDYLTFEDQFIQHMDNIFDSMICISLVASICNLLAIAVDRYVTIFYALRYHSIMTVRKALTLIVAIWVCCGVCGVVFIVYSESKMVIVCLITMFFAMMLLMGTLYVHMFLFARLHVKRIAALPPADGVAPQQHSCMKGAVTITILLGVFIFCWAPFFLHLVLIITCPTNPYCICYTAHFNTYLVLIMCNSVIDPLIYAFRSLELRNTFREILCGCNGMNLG
Assay [3] deals with human melanocortin receptor subtype 4 (hMC4-R) (human), P32245. The experiment in a line: [125I]-NDP-α-MSH competition, membranes.
Chain of human melanocortin receptor subtype 4 (hMC4-R) (human), P32245 (P32245 whole entry): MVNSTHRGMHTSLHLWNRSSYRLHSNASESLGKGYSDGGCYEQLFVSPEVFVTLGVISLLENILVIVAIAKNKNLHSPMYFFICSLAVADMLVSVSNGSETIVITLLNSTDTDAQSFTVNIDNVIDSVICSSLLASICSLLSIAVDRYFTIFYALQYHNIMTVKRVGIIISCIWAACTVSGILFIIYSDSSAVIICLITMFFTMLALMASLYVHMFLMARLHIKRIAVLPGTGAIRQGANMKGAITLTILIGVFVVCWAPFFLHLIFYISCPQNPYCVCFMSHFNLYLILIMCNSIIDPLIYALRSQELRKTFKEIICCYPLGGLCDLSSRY
Assay [4] addresses human melanocortin receptor subtype 5 (hMC5-R) (human), P33032. The experiment in a line: [125I]-NDP-α-MSH competition, membranes.
Assay [5] concerns the target hMC3-R (human) (UniProt P41968). The assay can be described thus: cell-based or functional assay.
Assay [6] addresses hMC4-R (human) (UniProt P32245). The assay can be described thus: cell-based or functional assay.
The target in assay [7] is human melanocortin receptor subtype 1 (hMC1-R) (human) (UniProt Q01726). The assay can be described thus: [125I]-NDP-α-MSH competition, membranes.
Chain of human melanocortin receptor subtype 1 (hMC1-R) (human) (Q01726 whole entry): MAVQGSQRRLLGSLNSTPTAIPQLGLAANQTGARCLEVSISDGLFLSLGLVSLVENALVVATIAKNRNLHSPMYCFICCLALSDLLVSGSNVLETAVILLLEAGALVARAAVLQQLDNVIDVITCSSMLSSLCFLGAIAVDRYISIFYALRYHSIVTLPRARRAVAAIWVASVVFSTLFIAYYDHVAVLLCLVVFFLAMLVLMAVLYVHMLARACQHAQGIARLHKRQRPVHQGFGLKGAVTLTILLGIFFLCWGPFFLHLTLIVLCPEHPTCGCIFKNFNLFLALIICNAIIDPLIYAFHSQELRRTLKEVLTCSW
Assay [8] concerns the target human melanocortin receptor subtype 3 (hMC3-R) (human) (UniProt P41968). The experiment in a line: [125I]-NDP-α-MSH competition, membranes.
Assay [9] has as its target human melanocortin receptor subtype 4 (hMC4-R) (human) (UniProt P32245). The assay can be described thus: [125I]-NDP-α-MSH competition, membranes.
The target of assay [10] is hMC1-R (human) (UniProt Q01726). The assay can be described thus: cell-based or functional assay.
Chain of hMC1-R (human) (Q01726 whole entry): as above
Assay [11] concerns the target hMC5-R (human) (UniProt P33032). The experiment in a line: cell-based or functional assay.
Assay [12] concerns the target hMC1-R (human) (UniProt Q01726). The experiment in a line: ratio Ki hMC1-R / Ki hMC4-R, same assay.
Assay [13] has the same target. The assay can be described thus: competition with [125I]-NDP-α-MSH, CHO-K1 membranes.
Assay [14] deals with hMC3-R (human) (UniProt P41968). The description is as above.
Chain of hMC3-R (human) (P41968 whole entry): as the sequence (P41968 whole entry) above
The target of assay [15] is hMC4-R (human) (UniProt P32245). The assay is described as above.
Chain of hMC4-R (human) (P32245 whole entry): as the sequence (P32245 whole entry) above
In assay [16] the target is hMC5-R (human) (UniProt P33032). The assay is described as above.
Chain of hMC5-R (human) (P33032 whole entry): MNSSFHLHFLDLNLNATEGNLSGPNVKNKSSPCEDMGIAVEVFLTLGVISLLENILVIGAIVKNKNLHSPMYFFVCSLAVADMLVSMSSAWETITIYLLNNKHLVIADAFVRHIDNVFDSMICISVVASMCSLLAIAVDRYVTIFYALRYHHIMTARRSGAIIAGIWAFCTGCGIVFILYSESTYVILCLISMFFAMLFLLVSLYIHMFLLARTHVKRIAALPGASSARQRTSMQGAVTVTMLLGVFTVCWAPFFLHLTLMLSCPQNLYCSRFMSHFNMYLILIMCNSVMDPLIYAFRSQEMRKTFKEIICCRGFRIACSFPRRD

Chain of human melanocortin receptor subtype 1 (hMC1-R) (human), Q01726 (Q01726 whole entry): as the sequence (Q01726 whole entry) above
Chain of human melanocortin receptor subtype 5 (hMC5-R) (human), P33032 (P33032 whole entry): as the sequence (P33032 whole entry) above
Chain of human melanocortin receptor subtype 4 (hMC4-R) (human) (P32245 whole entry): as the sequence (P32245 whole entry) above
Chain of human melanocortin receptor subtype 3 (hMC3-R) (human) (P41968 whole entry): as the sequence (P41968 whole entry) above

The term Ki denotes a dissociation constant, usually derived from enzyme kinetics or from competition with a known ligand. Read a low Ki as higher affinity. Regarding RGC[dA]H[dF]RWC-NH2 (disulfide 3-9; also: hydantoin ring: C(O) bridging Arg-Gly) [Hydantoin(C(O)-(Arg-Gly))-c(Cys-D-Ala-His-D-Phe-Arg-Trp-Cys)-NH2], the Ki in [1] worked out at 2.65 nM; in [2], 41.3 nM; in assay [3] it was 4.17 nM; in assay [4], 650 nM.
D[dA]H[dF]RW[Dap]-NH2 (lactam 1-7; also: hydantoin ring from C(O) with Asp1-D-Ala2) [c[Hydantoin(C(O)-(Asp-D-Ala))-His-D-Phe-Arg-Trp-Dap]-NH2]: the cAMP EC50 came out at 49.3 nM with hMC3-R (human) [5] and 2.12 nM with hMC4-R (human) [6]. Moreover, the Ki stood at 66.6 nM in assay [7], 1820 nM in [8] and 19.9 nM in [9].

B1: Ac-c(Cys-Glu-His-D-2-Nal-Arg-1-Nal-Ala-Cys)-Pro-Pro-Lys-Asp-NH2 (peptide)
peptide: Ac-CEH[d2Nal]R[1Nal]ACPPKD-NH2
modifications: disulfide 1-8
SMILES: CC(=O)N[C@H]1CSSC[C@@H](C(=O)N2CCC[C@H]2C(=O)N2CCC[C@H]2C(=O)N[C@@H](CCCCN)C(=O)N[C@@H](CC(=O)O)C(N)=O)NC(=O)[C@H](C)NC(=O)[C@H](Cc2cccc3ccccc23)NC(=O)[C@H](CCCNC(=N)N)NC(=O)[C@@H](Cc2ccc3ccccc3c2)NC(=O)[C@H](Cc2c[nH]cn2)NC(=O)[C@H](CCC(=O)O)NC1=O
With B1, the Ki in [1] stood at 124 nM; in assay [2], 17.8 nM; in [3] it was 1.11 nM; in [4] it was 348 nM.

B2: Ac-Nle-c(Cys-D-Ala-His-D-2-Nal-Arg-1-Nal-Cys)-NH2 (peptide)
peptide: Ac-[Nle]C[dA]H[d2Nal]R[1Nal]C-NH2
modifications: disulfide 2-8
SMILES: CCCC[C@H](NC(C)=O)C(=O)N[C@H]1CSSC[C@@H](C(N)=O)NC(=O)[C@H](Cc2cccc3ccccc23)NC(=O)[C@H](CCCNC(=N)N)NC(=O)[C@@H](Cc2ccc3ccccc3c2)NC(=O)[C@H](Cc2c[nH]cn2)NC(=O)[C@@H](C)NC1=O
On to B2, for which the figures for the cAMP EC50 in the assay with hMC1-R (human) [10] and with hMC5-R (human) [11] were 383 nM and 2840 nM, respectively. In addition, the cAMP Kb in the assay with hMC3-R (human) [5] stood at 61.5 nM; in the assay with hMC4-R (human) [6] it was 53.6 nM. For the same molecule, in the assay with hMC1-R (human) [12], the Ki hMC1-R/MC4-R worked out at 37.1. The Ki is 114 nM with hMC1-R (human) [13], 63.9 nM in the assay with hMC3-R (human) [14], 3.07 nM in the assay with hMC4-R (human) [15] and 1660 nM with hMC5-R (human) [16].
As for GRC[dA]H[dF]RWC-NH2 (disulfide 3-9; also: hydantoin ring from C(O) with Gly1-Arg2) [Hydantoin(C(O)-(Gly-Arg))-c(Cys-D-Ala-His-D-Phe-Arg-Trp-Cys)-NH2], the inhibitory constant (Ki) in [1] is 1.14 nM; in assay [2] it was 1.7 nM; in [3] it was 4.53 nM; in [4] it was 783 nM.
AGC[dA]H[dF]RWC-NH2 (disulfide 3-9; also: hydantoin ring: C(O) bridging Ala-Gly) [Hydantoin(C(O)-(Ala-Gly))-c(Cys-D-Ala-His-D-Phe-Arg-Trp-Cys)-NH2]: the Ki was 13.9 nM in [1], 38.4 nM in assay [2], 5.73 nM in [3] and 18.9 nM in assay [4].

B3: Ac-Trp-Arg-c(Cys-D-Ala-His-D-Phe-Arg-Trp-Cys)-NH2 (peptide)
peptide: Ac-WRC[dA]H[dF]RWC-NH2
modifications: disulfide 3-9
SMILES: CC(=O)N[C@@H](Cc1c[nH]c2ccccc12)C(=O)N[C@@H](CCCNC(=N)N)C(=O)N[C@H]1CSSC[C@@H](C(N)=O)NC(=O)[C@H](Cc2c[nH]c3ccccc23)NC(=O)[C@H](CCCNC(=N)N)NC(=O)[C@@H](Cc2ccccc2)NC(=O)[C@H](Cc2c[nH]cn2)NC(=O)[C@@H](C)NC1=O
For the molecule B3, the Ki in assay [1] is 4.7 nM; in assay [2], 42 nM; in assay [3] it was 2.25 nM; in assay [4] it was 1470 nM.
As to E[dA]H[dF]RW[Orn]-NH2 (lactam 1-7 (inferred); also: hydantoin ring from C(O) with Glu1-D-Ala2) [c[Hydantoin(C(O)-(Glu-D-Ala))-His-D-Phe-Arg-Trp-Orn]-NH2], the cAMP EC50 is 39.2 nM with hMC3-R (human) [5] and 4.94 nM in the assay with hMC4-R (human) [6]. The inhibitory constant (Ki) was 60.4 nM in assay [7], 2840 nM in [8] and 52.4 nM in assay [9].

B4: Ac-c(Cys-Glu-His-D-2-Nal-Arg-Bal-Ala-Cys)-Pro-Pro-Lys-Asp-NH2 (peptide)
peptide: Ac-CEH[d2Nal]R[Bta]ACPPKD-NH2
modifications: disulfide 1-8
SMILES: CC(=O)N[C@H]1CSSC[C@@H](C(=O)N2CCC[C@H]2C(=O)N2CCC[C@H]2C(=O)N[C@@H](CCCCN)C(=O)N[C@@H](CC(=O)O)C(N)=O)NC(=O)[C@H](C)NC(=O)[C@H](Cc2csc3ccccc23)NC(=O)[C@H](CCCNC(=N)N)NC(=O)[C@@H](Cc2ccc3ccccc3c2)NC(=O)[C@H](Cc2c[nH]cn2)NC(=O)[C@H](CCC(=O)O)NC1=O
B4: the Ki came out at 163 nM in [1], 23 nM in assay [2], 0.586 nM in assay [3] and 844 nM in assay [4].

B5: Hydantoin(C(O)-(Nle-Gly))-c(Cys-D-Ala-His-D-Phe-Arg-Trp-Cys)-NH2 (peptide)
peptide: [Nle]GC[dA]H[dF]RWC-NH2
modifications: disulfide 3-9; also: N-terminal hydantoin: C(O) bridges X1 N-terminal N and G2 backbone N, bridge at N via C(O), other end not in the chain
As for B5, the Ki turned out to be 7.92 nM in [1], 46.4 nM in assay [2], 6.7 nM in assay [3] and 21.3 nM in assay [4].

B6: Ac-c(Cys-Glu-His-D-2-Nal-Arg-2-Nal-Ala-Cys)-Pro-Pro-Lys-Asp-NH2 (peptide)
peptide: Ac-CEH[d2Nal]R[2Nal]ACPPKD-NH2
modifications: disulfide 1-8
SMILES: CC(=O)N[C@H]1CSSC[C@@H](C(=O)N2CCC[C@H]2C(=O)N2CCC[C@H]2C(=O)N[C@@H](CCCCN)C(=O)N[C@@H](CC(=O)O)C(N)=O)NC(=O)[C@H](C)NC(=O)[C@H](Cc2ccc3ccccc3c2)NC(=O)[C@H](CCCNC(=N)N)NC(=O)[C@@H](Cc2ccc3ccccc3c2)NC(=O)[C@H](Cc2c[nH]cn2)NC(=O)[C@H](CCC(=O)O)NC1=O
Turning to B6, the Ki in assay [1] came to 87.8 nM; in assay [2], 9.08 nM; in [3], 1.2 nM; in assay [4], 359 nM.
For VGC[dA]H[dF]RWC-NH2 (disulfide 3-9; also: hydantoin ring from C(O) with Val1-Gly2) [Hydantoin(C(O)-(Val-Gly))-c(Cys-D-Ala-His-D-Phe-Arg-Trp-Cys)-NH2], in that order: 15.3 nM, 160 nM, 8.66 nM and 33.4 nM.
In the same order, the values of LGC[dA]H[dF]RWC-NH2 (disulfide 3-9; also: hydantoin ring from C(O) with Leu1-Gly2) [Hydantoin(C(O)-(Leu-Gly))-c(Cys-D-Ala-His-D-Phe-Arg-Trp-Cys)-NH2] are 19.3 nM, 331 nM, 26.7 nM and 44.6 nM.
Consider IGC[dA]H[dF]RWC-NH2 (disulfide 3-9; also: hydantoin ring from C(O) with Ile1-Gly2) [Hydantoin(C(O)-(Ile-Gly))-c(Cys-D-Ala-His-D-Phe-Arg-Trp-Cys)-NH2], for which the Ki in assay [1] was determined as 11.6 nM; in assay [2], 194 nM; in [3], 11.5 nM; in assay [4] it was 28.9 nM.

B7: Ac-Phe-Arg-c(Cys-D-Ala-His-D-Phe-Arg-Trp-Cys)-NH2 (peptide)
peptide: Ac-FRC[dA]H[dF]RWC-NH2
modifications: disulfide 3-9
SMILES: CC(=O)N[C@@H](Cc1ccccc1)C(=O)N[C@@H](CCCNC(=N)N)C(=O)N[C@H]1CSSC[C@@H](C(N)=O)NC(=O)[C@H](Cc2c[nH]c3ccccc23)NC(=O)[C@H](CCCNC(=N)N)NC(=O)[C@@H](Cc2ccccc2)NC(=O)[C@H](Cc2c[nH]cn2)NC(=O)[C@@H](C)NC1=O
For B7, the Ki turned out to be 1.48 nM in [1], 14.8 nM in [2], 2.34 nM in [3] and 491 nM in assay [4].
Turning to Ac-[Nle]CH[d2Nal]RW[Ahx]C-NH2 (disulfide 2-8) [Ac-Nle-c(Cys-His-D-2-Nal-Arg-Trp-Ahx-Cys)-NH2], the cAMP EC50 came to 0.581 nM in the assay with hMC1-R (human) [10] and 0.126 nM with hMC5-R (human) [11]. Moreover, the cAMP Kb in the assay with hMC3-R (human) [5] came out at 10.8 nM; with hMC4-R (human) [6], 0.967 nM. For the same molecule, the Ki hMC1-R/MC4-R with hMC1-R (human) [12] was found to be 0.33. Moreover, the inhibition constant (Ki) was 0.333 nM with hMC1-R (human) [13], 2.91 nM in the assay with hMC3-R (human) [14], 0.998 nM with hMC4-R (human) [15] and 0.366 nM with hMC5-R (human) [16].
As to GGC[dA]H[dF]RWC-NH2 (disulfide 3-9; also: hydantoin ring from C(O) with Gly1-Gly2) [Hydantoin(C(O)-(Gly-Gly))-c(Cys-D-Ala-His-D-Phe-Arg-Trp-Cys)-NH2], the inhibitory constant (Ki) in assay [1] came to 20.9 nM; in assay [2], 69.7 nM; in assay [3], 8.32 nM; in assay [4], 50 nM.
With E[dA]H[dF]RWK-NH2 (lactam 1-7 (inferred); also: hydantoin ring from C(O) with Glu1-D-Ala2) [c[Hydantoin(C(O)-(Glu-D-Ala))-His-D-Phe-Arg-Trp-Lys]-NH2], the Ki was 72.6 nM in assay [7], 1920 nM in assay [8] and 45.2 nM in assay [9].

The values above are taken from patent US20120135923A1, “Use of Melanocortins to Treat Dyslipidemia” (IPSEN PHARMA, S.A.S., priority 2009, published 2012).
